Test results: patent US20250136710A1 (published 2025)
Positions count from the first letter of the chain named. Read-outs that look alike come from different tables or passages of the source.

Columns and labels:
Assay in all cases: FACS
mouse TIGIT = target: T1, mouse TIGIT (mouse, UniProt P86176 29-148)
T1 chain: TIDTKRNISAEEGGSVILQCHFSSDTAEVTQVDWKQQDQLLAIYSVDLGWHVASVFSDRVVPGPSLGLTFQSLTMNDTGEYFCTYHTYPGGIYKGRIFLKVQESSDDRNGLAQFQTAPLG

[1] = target: T2, cynomolgus macaque PVRIG expressed on HEK293 cells (cynomolgus macaque, UniProt A0A2K5WVV8 1-322)
T2 chain: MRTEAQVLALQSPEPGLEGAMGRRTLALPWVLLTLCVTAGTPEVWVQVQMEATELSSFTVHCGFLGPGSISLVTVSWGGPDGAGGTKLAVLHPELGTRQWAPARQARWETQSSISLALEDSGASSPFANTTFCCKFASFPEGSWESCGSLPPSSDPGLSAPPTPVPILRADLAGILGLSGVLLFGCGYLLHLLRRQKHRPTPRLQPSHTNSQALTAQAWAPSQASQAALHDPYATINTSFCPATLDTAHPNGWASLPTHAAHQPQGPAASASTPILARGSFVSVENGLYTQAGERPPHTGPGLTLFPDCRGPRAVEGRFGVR

cynomolgus TIGIT [2] = target: T3, cynomolgus TIGIT (cynomolgus macaque, UniProt A0A7N9I9V4 89-209)
T3 sequence (A0A7N9I9V4 entry or part of it): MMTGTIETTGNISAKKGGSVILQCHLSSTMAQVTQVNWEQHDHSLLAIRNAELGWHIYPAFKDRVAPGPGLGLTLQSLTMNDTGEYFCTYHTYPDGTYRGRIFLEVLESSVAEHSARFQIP

[3] = target: T2, cynomolgus macaque PVRIG expressed on …
cynomolgus TIGIT [4] = target: T3, cynomolgus TIGIT; remark: listed apart in the source
TIGIT [5] = target: T4, TIGIT (human, UniProt Q495A1 22-141)
T4 chain: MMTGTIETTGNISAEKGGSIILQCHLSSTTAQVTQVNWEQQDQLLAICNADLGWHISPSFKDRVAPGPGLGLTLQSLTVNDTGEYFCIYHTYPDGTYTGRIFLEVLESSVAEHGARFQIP

TIGIT [6] = target: T4, TIGIT

B1: CPA.9.083 (antibody, V domains shown)
VH: EVQLVETGGGLIQPGRSLRLSCAASGFTFSSYAMHWVRQAPGKGLEWVAVISYDGTPVYYADSVKGRFTISRDNSKNTLYLQMNSLRAEDTAVYYCARDPLPLHYYGMDVWGQGTTVTVSS
VL: QSALTQPRSASGNPGQRVTISCSGSSSNMGRRPVNWYQQIPGTAPKLLIYSQNQRPSGVPDRFSGSQSGTSASLTISGLQSEDEAEYFCAVWDGDRRSLQLGGGTQLAVLG
B1 was tested. Which Kd (mouse TIGIT) did it give?
The Kd was 0.7 nM.

B2: CPA.9.086 (antibody, V domains shown)
VH: B1 VH with D54A, T56E, P57V, V58K
VL: B1 VL with G94D, D95I, R96G, S98V
With B2 as the binder, how does the Kd (mouse TIGIT) read?
The Kd was 1.32 nM.

B3: CHA.7.518.1 (antibody, V domains shown)
VH: QVQLVQSGAEVKKPGASVKVSCKASGYTFTDYNINWVRQAPGQGLEWMGYIYPYIGGSGYAQKFQGRVTMTRDTSTSTVYMELSSLRSEDTAVYYCAREDKTARNAMDYWGQGTLVTVSS
VL: DIQMTQSPSSLSASVGDRVTITCRVSENIYSNLAWYQQKPGKAPKLLIYEATNLAEGVPSRFSGSGSGTDFTLTISSLQPEDFATYYCQHFWGTPYTFGQGTKLEIKR
B3 was tested. Which Kd [1] did it give?
Its Kd is 0.35 nM.

B4: BM26 (antibody, V domains shown)
VH: EVQLQQSGPELVKPGSSVKMSCKASGYTFSSYVMHWVKQKPGQGLEWIGYIDPYNDGAKYNEKFKGKATLTSDKSSSTAYMELSSLTSEDSAVYYCARGGPYGWYFDVWGAGTTVTVSS
VL: DIQMTQSPASLSASVGETVTITCRASEHIYSYLSWYQQKQGKSPQLLVYNAKTLAEGVPSRFSGSGSGTQFSLKINSLQPEDFGTYYCQHHFGSPLTFGAGTTLELKR
How did the Kd (cynomolgus TIGIT [2]) turn out when B4 was run?
Its Kd is 1.69 nM.

B5: PVRIG (COM701) (antibody, V domains shown)
VH: QVQLVQSGAEVKKPGASVKVSCKASGYAFTNYLIEWVRQAPGQGLEWIGVINPGSGGIYYAQKFQGRVTMTADTSTSTVYMELSSLRSEDTAVYYCARSETHDTWFAYWGQGTLVTVSS
VL: DIQMTQSPSSLSASVGDRVTITCKASQSVRIAVAWFQQKPGKAPKALIYLASTRHTGVPSRFSGSGSGTDFTLTISSVQPEDFATYYCLQHWNYPYTFGQGTKLEIKR
With B5 as the binder, how does the Kd [3] read?
The Kd was 0.248 nM.

B6: CPA.9.547.13 (antibody, V domains shown)
VH: EVQLVESGGGLVQPGGSLRLSCAASGFTFSSYIMSWVRQAPGKGLEWVATISGGGTNTYYADSVKGRFTISRDNSKNTLYLQMNSLRAEDTAVYYCAKWLLSYYAMDYWGQGTLVTVSS
VL: DIQMTQSPSSLSASVGDRITITCRASQNINVWLTWYQQKPGKAPKLLIYKASKSHTGVPSRFSGSGSGTDFTLTISSLQPEDFATYYCQQGQSYPYTFGQGTKLEIKR
Which results are given for B6?
Kd (cynomolgus TIGIT [4]): 1.67 nM; Kd (TIGIT [5]): 0.71 nM

B7: CHA.9.547.7 (antibody, V domains shown)
VH: B6 VH with A49S
VL: B6 VL with I19V
Which results are given for B7?
Kd (cynomolgus TIGIT [2]): 1.54 nM; Kd (TIGIT [6]): 1.82 nM
